Measurements published in paper PMC3969221.

How the values were obtained:
[1] = molecular target: Manduca sexta cadherin protein fragment (CR7–CR12) (Manduca sexta); test: ELISA; 1 μg of cadherin fragment coated per well; toxin or protoxin dilutions in PBS, 1 h at 37°C; detected with polyclonal anti-Cry1Ab antibody; Scatchard analysis; apparent Kd
[2] = molecular target: trypsin-activated Cry1AbMod toxin (Bacillus thuringiensis) (UniProt P0A370)

Work on “Cry1Ab protoxin (from UniProt P0A370 1-1155) (natural protein)” yielded a Kd [1] of 6.8 nM.

“trypsin-activated Cry1AbMod toxin (from UniProt P0A370 1-1155) (domain or fragment)” showed an LC50 (50% lethal concentration) against M. sexta neonatal larvae, mortality after 7 days [2] of 15 ng/cm^2.
